Source: patent publication US20260273042A1 (INTERNATIONAL AIDS VACCINE INITIATIVE, published 2026)

B1: PGT145 (antibody, V domains shown)
VH: QVQLVQSGAEVKKPGSSVKVSCKASGNSFSNHDVHWVRQATGQGLEWMGWMSHEGDKTGLAQKFQGRVTITRDSGASTVYMELRGLTADDTAIYYCLTGSKHRLRDYFLYNEYGPNYEEWGDYLATLDVWGHGTAVTVSS
VL: EVVITQSPLFLPVTPGEAASLSCKCSHSLQHSTGANYLAWYLQRPGQTPRLLIHLATHRASGVPDRFSGSGSGTDFTLKISRVESDDVGTYYCMQGLHSPWTFGQGTKVEIKR
B2: PGT151 Fab (Fab, V domains shown)
VH: RVQLVESGGGVVQPGKSVRLSCVVSDFPFSKYPMYWVRQAPGKGLEWVAAISGDAWHVVYSNSVQGRFLVSRDNVKNTLYLEMNSLKIEDTAVYRCARMFQESGPPRLDRWSGRNYYYYSGMDVWGQGTTVTVSS
VL: DIVMTQTPLSLSVTPGQPASISCKSSESLRQSNGKTSLYWYRQKPGQSPQLLVFEVSNRFSGVSDRFVGSGSGTDFTLRISRVEAEDVGFYYCMQSKDFPLTFGGGTKVDLKR

What was measured:
[1] = biological target: AC10 Olio6; assay: SPR (ligand and analyte not given)
[2] = biological target: BG505 MD53; assay: SPR (ligand and analyte not given)
[3] = biological target: MD39-10MUT; assay: SPR, trimer ligand, Fab analyte (1-to-1 fit relatively poor) [panel A]

| Binder | Kd [1] [nM] | Kd [2] [nM] | Kd [3] [nM] |
| --- | --- | --- | --- |
| B1 | 53 | 22 | – |
| B2 | – | – | 35 |
